Measured values reported in PMC4720288.

Target: human MALT1_(Casp-Ig3)(338–719) (human) (UniProt Q9UDY8)
Assay: crystal structure; in-house X-ray structure of apo MALT1_(Casp-Ig3), data not published

stoichiometry N: 2
Substance: human MALT1_(Casp-Ig3)(338–719) (from UniProt Q9UDY8 338-719) (domain or fragment)
